Measured values as given in patent publication US20190083645A1 (AbbVie / Abbott, published 2019).
Substitutions are numbered along the chain they refer to.

T1: human CLDN6 (human, UniProt P56747 1-220)
T1 sequence: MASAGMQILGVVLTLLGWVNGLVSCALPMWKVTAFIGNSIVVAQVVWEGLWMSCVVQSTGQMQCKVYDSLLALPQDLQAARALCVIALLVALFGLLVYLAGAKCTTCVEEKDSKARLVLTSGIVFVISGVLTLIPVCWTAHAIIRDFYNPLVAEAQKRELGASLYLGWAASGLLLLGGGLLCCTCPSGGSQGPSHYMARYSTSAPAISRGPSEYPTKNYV

T2: human CLDN9 (human, UniProt O95484 1-217)
T2 sequence: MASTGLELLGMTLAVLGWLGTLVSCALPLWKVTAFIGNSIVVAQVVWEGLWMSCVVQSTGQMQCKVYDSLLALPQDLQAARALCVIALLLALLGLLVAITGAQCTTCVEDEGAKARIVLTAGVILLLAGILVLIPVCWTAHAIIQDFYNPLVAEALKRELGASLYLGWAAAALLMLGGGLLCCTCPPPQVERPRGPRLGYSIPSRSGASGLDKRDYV

T3: human CLDN4 (human, UniProt O14493 1-209)
T3 sequence (looked up): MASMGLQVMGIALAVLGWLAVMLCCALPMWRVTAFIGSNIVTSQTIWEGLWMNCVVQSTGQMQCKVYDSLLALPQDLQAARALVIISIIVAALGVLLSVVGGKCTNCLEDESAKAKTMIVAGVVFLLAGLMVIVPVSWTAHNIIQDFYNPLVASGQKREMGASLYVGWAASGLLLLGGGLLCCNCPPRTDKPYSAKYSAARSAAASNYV

B1: SC27.108 (antibody, V domains shown)
VH: QVQMQQSGAELVRPGTSVKVSCKASGYAFTNYLIEWVKQRPGQGLEWIGLINPGSGGTNYNEKFKGKATLTADKSSTTAYMQLSSLTSDDSAVYFCARRSPLGSWIYYAYDGVAYWGQGTLVTVSA
VL: EIVLTQSPALMAASPGEKVTITCSVSSSISSSNLHWYQQKSGTSPKLWIYGTSNLASGVPVRFSGSGSGTSYSLTISNMEAEDAATYYCQQWSSYPHTFGGGTKLEIK
B2: SC27.204 (antibody, V domains shown)
VH: EVKVLESGGGLVQPGGSLKLSCAASGFDFSRYWMSWVRQAPGKGLEWIGEINPDSSTINYTPSLKAKFIISRDNAKNTLYLQMSKVRSEDTALYYCTGPAYWGQGTLVTVSA
VL: DIVMTQSQKFMSTSVGDRVSVACKAGQNVGTSVAWYQQKPGHSPKSLIYSASYRYSGVPNRFTGSGSGTDFTLTISNVQSEDLADYFCQQYITYPYTFGGGTKLEII
B3: SC27.201 (antibody, V domains shown)
VL: DIQMTQSSSSFSVSLGDRVTITCKASEDIYNRLAWYQQKPGNAPRLLISGATSLEAGVPSGFSGSGSGKDYTLSITSLQTEDVATYYCQQYWSTPPTFGGGTKLELK
V domain: EVQLQQSGPELVKPGASVKISCKTSGYTFTENIRHWVKQSRGKSLEWIGTINPNNGETRYNQKFKGKATLTVDKSSSTAYMELRSLTSEDSAVYYCTRGITKSPYGMDYWGQGTSITVSS
B4: SC27.104 (antibody, V domains shown)
VH: EVQLQQSGPELVKPGASVKISCKTSGYTFTEYTVHWVKQSHGKSLEWIGGVYPKNGDTTYNQKFRGKATLTVDKSSNTAYMELRSLTSEDSAVYYCTGKDGYDGFAYWGQGTLVTVSA
VL: B3 VL with A56T, G61R, T94N, L106I
B5: SC27.105 (antibody, V domains shown)
VH: EVQLQQSGPELVKPGASVKISCKASGYSFTGYYMNWVKQSPEKSLEWIGEINPSTGSTTYNQKFKAKATLTVDKSSSTAYMQLKSLTSEDSAVYYCARRDYYYGSGFYAMDYWGQGTSVTVSS
VL: DVQMTQSPSSLSASLGERVSLTCQASQSVSNNLNWYQQTPGKAPRLLIYGASKLEDGVSSRFSGTGYGTDFTFTISSLEEEDVATYFCLQHRYLWTFGGGTKLEIK
B6: SC27.103 (antibody, V domains shown)
VH: EVHLQQSGPELVKPGGSMKISCKASGYSFTGYTMNWVKQSHGKNLEWIGLFNPYNGGTSYNQKFKGKATLTVDKSSSTAYMELLSLTSEDSAVYYCARCYRYDGLDYWGQGTTLTVSS
VL: QIVLTQSPAIMSASLGERVTMTCTASSSVSSSYLHWYQQKPGSSPTLWIYRTSDLASGVPARFSGSGSGTSYSLTISSMEAEDAATYYCHQYHRSPWTFGGGTRLEIK

Target: T1, human CLDN6
Test: cell-based or functional assay

Row | Binder | apparent IC50, killing of HEK293T cells overexpressing hCLDN6 with anti-mouse Fab-saporin, CellTiter-Glo [nM]
1 | B1 | 102
2 | B2 | 25.2
3 | B3 | 48.2
4 | B4 | 284
5 | B5 | 235
6 | B6 | 57.7

Target: T2, human CLDN9
Test: cell-based or functional assay

Row | Binder | apparent IC50, killing of HEK293T cells overexpressing hCLDN9 with anti-mouse Fab-saporin, CellTiter-Glo [nM]
7 | B1 | > 2000
8 | B2 | 16.9
9 | B3 | 155
10 | B4 | > 2000
11 | B5 | > 2000
12 | B6 | 466

Target: T3, human CLDN4
Test: cell-based or functional assay

Row | Binder | apparent IC50, killing of HEK293T cells overexpressing hCLDN4 with anti-mouse Fab-saporin, CellTiter-Glo [nM]
13 | B1 | > 2000
14 | B2 | > 2000
15 | B3 | 69.7
16 | B4 | 969
17 | B5 | > 2000
18 | B6 | > 2000
